Experimental data: US10520496B2 (priority 2015, dated 2019)
“And” between values parts separate entries of the source, which are not always exact repeats. Equal values may be shown once. “Also recorded” adds a separate entry of the source. Read-outs that look alike come from different tables or passages of the source. *: point of attachment. 5FAM = O=C1OC2(c3ccc(O)cc3Oc3cc(O)ccc32)c2ccc(C(=O)*)cc21; DABCYL = quencher, CN(C)c1ccc(/N=N/c2ccc(C(=O)*)cc2)cc1

Assays:
[1] = test system: collagenase; assay: Enzymes that can cleave the substrate (Table 2); type: biochemical; settings: general statement
[2] = biological target: elastase (Sus scrofa, UniProt P00772); type: biochemical
Sequence of elastase (P00772 27-266): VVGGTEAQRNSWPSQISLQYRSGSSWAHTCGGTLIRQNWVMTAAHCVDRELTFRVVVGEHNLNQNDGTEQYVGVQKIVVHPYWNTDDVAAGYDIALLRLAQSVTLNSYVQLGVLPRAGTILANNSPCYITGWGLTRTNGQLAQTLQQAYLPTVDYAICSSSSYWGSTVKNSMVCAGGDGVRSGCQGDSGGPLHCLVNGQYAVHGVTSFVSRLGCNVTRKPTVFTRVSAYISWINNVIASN

[3] = biological target: Thermolysin (Bacillus thermoproteolyticus, UniProt P00800); type: biochemical; settings: for effect of zinc on measured RFU (enzymatic cleavage): zinc salt 16.7 μM, presence or absence of CaCl2 4.14 mM, vs control and NaSO4
Sequence of Thermolysin (P00800 233-548): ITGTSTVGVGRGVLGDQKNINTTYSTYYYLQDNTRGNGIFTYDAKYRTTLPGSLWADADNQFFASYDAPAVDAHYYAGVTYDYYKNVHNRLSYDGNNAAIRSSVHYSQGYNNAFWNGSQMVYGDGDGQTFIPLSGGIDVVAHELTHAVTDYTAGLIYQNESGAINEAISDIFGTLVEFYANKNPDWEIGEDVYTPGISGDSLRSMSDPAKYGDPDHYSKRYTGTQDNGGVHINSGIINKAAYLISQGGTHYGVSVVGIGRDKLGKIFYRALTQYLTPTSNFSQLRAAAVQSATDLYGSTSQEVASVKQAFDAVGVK

[4] = biological target: Botulinum neurotoxin A (Clostridium botulinum, UniProt P0DPI0)
[5] = biological target: Collagenase II (Hathewaya histolytica, UniProt Q46085); type: biochemical, Clostridium histolyticum
[6] = test system: proteases listed in Table 7 except thermolysin (Collagenase I Liq, Collagenase II Liq, Collagenase NB1, Collagenase I/II, Neutral Protease NB); type: biochemical; settings: within the first hour; almost all proteases tested except thermolysin; peptide 10 μM; protease 20 μg/mL; pH 7.5
[7] = biological target: Collagenase I (Hathewaya histolytica, UniProt Q9X721); type: biochemical, Clostridium histolyticum; settings: for Km / Vmax: collagenase I 0.45 μg/ml; for effect of zinc on measured RFU (enzymatic cleavage): zinc salt 16.7 μM, presence or absence of CaCl2 4.14 mM, vs control and NaSO4
Sequence of Collagenase I (Q9X721 111-1118): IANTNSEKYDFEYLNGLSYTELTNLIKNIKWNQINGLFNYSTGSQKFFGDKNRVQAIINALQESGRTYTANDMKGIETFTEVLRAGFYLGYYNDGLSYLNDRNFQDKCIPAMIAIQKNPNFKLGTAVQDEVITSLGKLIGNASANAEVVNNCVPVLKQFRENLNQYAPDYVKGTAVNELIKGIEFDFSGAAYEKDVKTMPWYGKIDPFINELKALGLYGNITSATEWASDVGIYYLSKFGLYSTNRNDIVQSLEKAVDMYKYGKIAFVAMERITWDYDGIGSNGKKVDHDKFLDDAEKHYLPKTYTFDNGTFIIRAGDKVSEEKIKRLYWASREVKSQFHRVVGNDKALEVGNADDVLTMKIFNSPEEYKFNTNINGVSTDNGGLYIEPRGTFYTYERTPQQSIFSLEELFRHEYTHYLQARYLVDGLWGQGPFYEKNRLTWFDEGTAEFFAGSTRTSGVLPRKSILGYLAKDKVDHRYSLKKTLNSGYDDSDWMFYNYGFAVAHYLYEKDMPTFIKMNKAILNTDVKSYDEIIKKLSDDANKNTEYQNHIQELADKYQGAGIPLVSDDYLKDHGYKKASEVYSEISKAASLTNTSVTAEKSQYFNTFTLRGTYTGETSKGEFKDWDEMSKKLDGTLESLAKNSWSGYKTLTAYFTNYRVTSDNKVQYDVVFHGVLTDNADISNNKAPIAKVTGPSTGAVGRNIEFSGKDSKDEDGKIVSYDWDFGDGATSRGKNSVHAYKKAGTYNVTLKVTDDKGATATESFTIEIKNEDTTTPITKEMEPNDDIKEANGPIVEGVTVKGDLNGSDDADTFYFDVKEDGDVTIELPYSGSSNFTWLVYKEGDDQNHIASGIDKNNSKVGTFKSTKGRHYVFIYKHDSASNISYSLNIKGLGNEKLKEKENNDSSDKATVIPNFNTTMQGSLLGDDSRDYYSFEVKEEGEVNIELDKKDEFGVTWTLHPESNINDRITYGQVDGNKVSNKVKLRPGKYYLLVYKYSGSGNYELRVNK

[8] = water
[9] = test system: Collagenase I/II; type: biochemical; settings: general statement
Method: The cleavage sites produced by various proteases were analyzed using the known sequence of the novel protease substrate 5FAMcollagenPPT. As provided herein, the cleavage sites were determined based on the results of mass spectrometric analysis of the protease substrate 5FAMcollagenPPT peptide fragments obtained from an enzymatic reaction with various enzymes tested.
Cleavage of the novel fluorogenic protease substrate 5FAMcollagenPPT was further investigated using various proteases. After cleavage of the substrate by proteases, the resulting cleavage products of the protease substrate were specifically analyzed using matrix-assisted laser desorption/ionization (MALDI) mass spectrometry.
Next, the specific sequences of the protease substrate 5FAMcollagenPPT cleavage products were analyzed using MALDI. Briefly, each protease was incubated for 15 minutes with the protease substrate at 22° C. Buffer conditions and concentrations of the protease substrates and proteases were as described in Example 2. The uncleaved 5FAMcollagenPPT substrate has a molecular weight of 1669.8 Daltons. The molecular weights of the resulting products of the protease substrate after cleavage by various proteases are shown in Table 8 and FIG. 13.

[10] = biological target: dispase (Paenibacillus polymyxa, UniProt P29148); assay: Enzymes that can cleave the substrate (Table 2); type: biochemical; settings: general statement
Sequence of dispase (P29148 287-590): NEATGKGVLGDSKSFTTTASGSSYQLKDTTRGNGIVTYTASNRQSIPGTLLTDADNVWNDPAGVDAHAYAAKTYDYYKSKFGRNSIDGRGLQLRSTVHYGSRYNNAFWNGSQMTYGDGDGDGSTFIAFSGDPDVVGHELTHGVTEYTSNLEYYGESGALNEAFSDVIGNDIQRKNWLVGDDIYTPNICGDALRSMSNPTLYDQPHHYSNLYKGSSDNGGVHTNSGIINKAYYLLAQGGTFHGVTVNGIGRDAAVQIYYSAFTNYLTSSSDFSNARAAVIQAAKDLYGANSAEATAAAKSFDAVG

[11] = test system: trypsin; settings: for Enzymes that do not cleave 5FAMcollagenPPT: trypsin: general statement
[12] = test system: Neutral Protease; type: biochemical, Clostridium histolyticum; settings: for Km / Vmax: neutral protease 20 μg/ml, substrate 5-80 μM, Example 2; for effect of zinc on measured RFU (enzymatic cleavage): zinc salt 16.7 μM, presence or absence of CaCl2 4.14 mM, vs control and NaSO4
Text: GraphPad Prism (GraphPad Software 6.0, La Jolla, Calif., USA) was used for analyzing the data and generating the graphs. Both non-linear Michaelis-Menten and linear Lineweaver-Burk plots were used for the enzyme kinetics study. Kinetic parameters Vmax and Km were obtained from the Michaelis-Menten model by plotting the reaction velocity at different concentration of peptide substrate. Non-linear Michaelis-Menten curves for the enzymatic reaction in the presence and absence of CaCl2 were compared using Prism. All samples were run in duplicate, and results are reported as average±standard error of the mean (SEM). One-way or two-way ANOVA analysis followed by Tukey's multiple comparisons test was used to conduct multiple variable comparisons when applicable. Differences in data were considered significant when P values were less than 0.05.

[13] = biological target: chymotrypsin (Bos taurus, UniProt P00766); type: biochemical
[14] = biological target: Botulinum neurotoxin B (Clostridium botulinum, UniProt P10844)
[15] = enzyme 0.3125-10 μg/mL, substrate 50 μM, Example 3
[16] = general statement, listed as 5FAM collagenPPT
[17] = Example 3 (FIG. 10), thermolysin 17 μg/ml
[18] = with 4.14 mM calcium, thermolysin 17 μg/ml, substrate 5-80 μM, Example 2
[19] = without calcium, thermolysin 17 μg/ml, substrate 5-80 μM, Example 2
[20] = with 4.14 mM calcium, substrate 5-80 μM, Example 2
[21] = without calcium, substrate 5-80 μM, Example 2

5-FAM-Ala-Gly-Gly-Pro-Leu-Gly-Pro-Pro-Gly-Pro-Gly-Gly-Lys-[DABCYL]-amide (5FAM-AGGPLGPPGPGGK(DABCYL)-NH2; SMILES CC(C)C[C@H](NC(=O)[C@@H]1CCCN1C(=O)CNC(=O)CNC(=O)[C@H](C)NC(=O)c1ccc2c(c1)C(=O)OC21c2ccc(O)cc2Oc2cc(O)ccc21)C(=O)NCC(=O)N1CCC[C@H]1C(=O)N1CCC[C@H]1C(=O)NCC(=O)N1CCC[C@H]1C(=O)NCC(=O)NCC(=O)N[C@@H](CCCCNC(=O)c1ccc(/N=N/c2ccc(N(C)C)cc2)cc1)C(N)=O) [5FAMcollagenPPT]
Enzymes that can cleave 5FAMcollagenPPT: collagenase [1]: collagenase-specific
cleavage of substrate by elastase, dose response (FIG. 11) [2, 15]: do not cleave
Enzymes that do not cleave 5FAMcollagenPPT: elastase [2, 16]: elastase
Km [3, 17]: 34.6 µM
Vmax [3, 17]: 24.6 RFU/min/μg
specificity of substrate for thermolysin, dose response (FIG. 11) [3, 15]: highly specific
cleavage of substrate by thermolysin (FIG. 9) ([3]; enzyme 2.5, 5, 10 μg/ml, substrate 50 μM, with and without 4.14 mM CaCl2): dose-dependent cleavage; also recorded: cleaved
Enzymes that can cleave 5FAMcollagenPPT: thermolysin ([3]; general statement): cleaved by thermolysin; also recorded: shown to cleave; also recorded: cleavable by thermolysin
effect of pH on enzymatic cleavage activity ([3]; pH 8.0 compared to all other pH conditions, substrate 20 μM): significantly inhibited
Km [3, 18]: 24.8 µM
Vmax [3, 18]: 25.47 RFU/min/μg
Km [3, 19]: 30.4 µM
Vmax [3, 19]: 23.7 RFU/min/μg
Enzymes that can cleave 5FAMcollagenPPT: Botulinum neurotoxin A [4]: Botulinum neurotoxin A and B
Enzymes that can cleave 5FAMcollagenPPT: collagenase II (class II) [5]: shown to cleave; also recorded: cleaved
Km [5]: 29.7 µM and 24.1 µM and 24.5 µM
Vmax [5]: 3354.43 RFU/min/μg and 3243.942 RFU/min/μg and 5000 RFU/min/μg
effect of pH on enzymatic cleavage activity [5]: significantly inhibited
cleavage of substrate over time (FIG. 12) [6]: efficient cleavage
Km ([7]; Example 3 (FIG. 10)): 28.2 µM
Vmax ([7]; Example 3 (FIG. 10)): 909 RFU/min/μg
Enzymes that can cleave 5FAMcollagenPPT: collagenase I (class I) ([7]; general statement): shown to cleave; also recorded: cleaved
effect of pH on enzymatic cleavage activity ([7]; pH 6.8, 7.0, 7.5, 8.0, substrate 20 μM): influenced by pH except Collagenase I
Km [7, 20]: 32.9 µM
Vmax [7, 20]: 1008.158 RFU/min/μg
Km [7, 21]: 38.1 µM
Vmax [7, 21]: 1704.72 RFU/min/μg
solubility [8]: water soluble
Enzymes that can cleave 5FAMcollagenPPT: class I/II collagenase [9]: cleaved
Enzymes that can cleave 5FAMcollagenPPT: dispase [10]: cleaved; also recorded: dispase
cleavage of substrate by trypsin, dose response (FIG. 11) [11, 15]: do not cleave
cleavage of substrate by trypsin (FIG. 9) ([11]; enzyme 2.5, 5, 10 μg/ml, substrate 50 μM, with and without 4.14 mM CaCl2, compared to thermolysin): significantly diminished reactivity; also recorded: not cleaved
Enzymes that do not cleave 5FAMcollagenPPT: trypsin [11]: not degraded; also recorded: resistant to trypsin; also recorded: resistant to cleavage
Enzymes that do not cleave 5FAMcollagenPPT: trypsin ([11]; listed as 5FAM collagenPPT): trypsin
effect of pH on enzymatic cleavage activity ([12]; between pH 7.0 and pH 8.0, substrate 20 μM): significant difference
Km ([12]; with 4.14 mM calcium): 45.1 µM
Vmax ([12]; with 4.14 mM calcium): 29.28 RFU/min/μg
Km ([12]; without calcium): 74.1 µM
Vmax ([12]; without calcium): 20.04 RFU/min/μg
cleavage of substrate by chymotrypsin, dose response (FIG. 11) [13, 15]: do not cleave
Enzymes that do not cleave 5FAMcollagenPPT: chymotrypsin [13, 16]: chymotrypsin
Enzymes that can cleave 5FAMcollagenPPT: Botulinum neurotoxin B [14]: Botulinum neurotoxin A and B

[Ca+2].[Cl-].[Cl-] [CaCl2, reference compound]
effect of CaCl2 on the cleavage reaction (Michaelis-Menten curves) ([3]; CaCl2 4.14 mM, Thermolysin 17 μg/ml, substrate 5FAMcollagenPPT 5-80 μM): did not change significantly
effect of CaCl2 on the cleavage reaction (Michaelis-Menten curves) [5]: did not change significantly
effect of CaCl2 on the cleavage reaction (Michaelis-Menten curves) ([7]; CaCl2 4.14 mM, Collagenase I 0.45 μg/ml, substrate 5FAMcollagenPPT 5-80 μM): significantly enhanced
effect of CaCl2 on the cleavage reaction (Michaelis-Menten curves) ([12]; CaCl2 4.14 mM, Neutral Protease 20 μg/ml, substrate 5FAMcollagenPPT 5-80 μM): significantly enhanced

O=C(O)CN(CCOCCOCCN(CC(=O)O)CC(=O)O)CC(=O)O [EGTA, ethylene glycol-bis(β-aminoethyl ether)-N,N,N′,N′-tetraacetic acid, reference compound]
effect of EGTA on RFU levels vs controls ([3]; EGTA 25, 50, 100 mM, thermolysin 17 μg/ml, substrate 20 μM): significant differences
effect of EGTA on RFU levels vs controls [5]: significant differences

[Cl-].[Cl-].[Zn+2] [ZnCl2, reference compound]
effect of zinc on measured RFU (enzymatic cleavage) ([3]; substrate 20 μM): significantly decreased
effect of zinc on measured RFU (enzymatic cleavage) [5]: significantly decreased
effect of zinc on measured RFU (enzymatic cleavage) ([7]; substrate 20 μM): significantly decreased
effect of zinc on measured RFU (enzymatic cleavage) ([12]; substrate 20 μM): significantly decreased

O=S(=O)([O-])[O-].[Zn+2] [ZnSO4, reference compound]
effect of zinc on measured RFU (enzymatic cleavage) ([3]; substrate 20 μM): significantly decreased
effect of zinc on measured RFU (enzymatic cleavage) [5]: significantly decreased
effect of zinc on measured RFU (enzymatic cleavage) ([7]; substrate 20 μM): significantly decreased
effect of zinc on measured RFU (enzymatic cleavage) ([12]; substrate 20 μM): significantly decreased
